We go through 1 sequence from patent US20100166808A1, “Method of Facilitating Intracellular Uptake or Transcellular Transport of Cargo Using Nanocarriers Containing Optimal Surface Densities of Integrin-Specific Ligands” (priority 2008, published 2010).

Holding throughout (test): Selectivity for human integrin receptors: phage binding to plate-coated purified integrin
Holding throughout (conditions): FIG. 1; purified integrin coated at 1 μg/mL; phage-displayed ligand, detection at 450 nm

Experiment [1] relates to αvβ3 integrin receptor.
Experiment [2] concerns the target T1, human α5β1 integrin receptor (Homo sapiens, UniProt P05556+P08648).
T1 construct: purchased Chemicon, Temecula, Calif
As for the experimental part:
(§1) Nunc MaxiSorp™ 96-well plates are coated with 200 μL of purified human α3β1, α5β1, and αvβ5 integrins (Chemicon, Temecula, Calif.) at 1 μg/mL in Tween 20™/PBS buffer, pH 7.5 (4° C.). After blocking for two hours with 5% (w/v) BSA (bovine serum albumin) in PBS, pH 7.5, phage samples are incubated with integrins in PBS, pH 7.5, supplemented with 2.5% (w/v) non-fat dry milk. After one hour of incubation, unbound phages are removed and the wells are washed five times with Ca^2+- and Mg^2+-containing PBS, pH 7.5.
(§2) Bound phages are quantified spectrophotometrically at λ=450 nm using monoclonal mouse T7 tail fiber antibody (1:5,000) followed by goat anti-mouse IgG horseradish peroxidase:conjugate (1:5,000) and TMB (3,3′,5,5′-tetramethyl-benzidine) as substrate.

Experiment [3] addresses T2, α3β1 integrin receptor (Homo sapiens, UniProt P05556+P26006).
T2 construct: purchased Chemicon, Temecula, Calif
The method, then:
as §1, §2

T1 sequence (P08648 42-894 limits assumed): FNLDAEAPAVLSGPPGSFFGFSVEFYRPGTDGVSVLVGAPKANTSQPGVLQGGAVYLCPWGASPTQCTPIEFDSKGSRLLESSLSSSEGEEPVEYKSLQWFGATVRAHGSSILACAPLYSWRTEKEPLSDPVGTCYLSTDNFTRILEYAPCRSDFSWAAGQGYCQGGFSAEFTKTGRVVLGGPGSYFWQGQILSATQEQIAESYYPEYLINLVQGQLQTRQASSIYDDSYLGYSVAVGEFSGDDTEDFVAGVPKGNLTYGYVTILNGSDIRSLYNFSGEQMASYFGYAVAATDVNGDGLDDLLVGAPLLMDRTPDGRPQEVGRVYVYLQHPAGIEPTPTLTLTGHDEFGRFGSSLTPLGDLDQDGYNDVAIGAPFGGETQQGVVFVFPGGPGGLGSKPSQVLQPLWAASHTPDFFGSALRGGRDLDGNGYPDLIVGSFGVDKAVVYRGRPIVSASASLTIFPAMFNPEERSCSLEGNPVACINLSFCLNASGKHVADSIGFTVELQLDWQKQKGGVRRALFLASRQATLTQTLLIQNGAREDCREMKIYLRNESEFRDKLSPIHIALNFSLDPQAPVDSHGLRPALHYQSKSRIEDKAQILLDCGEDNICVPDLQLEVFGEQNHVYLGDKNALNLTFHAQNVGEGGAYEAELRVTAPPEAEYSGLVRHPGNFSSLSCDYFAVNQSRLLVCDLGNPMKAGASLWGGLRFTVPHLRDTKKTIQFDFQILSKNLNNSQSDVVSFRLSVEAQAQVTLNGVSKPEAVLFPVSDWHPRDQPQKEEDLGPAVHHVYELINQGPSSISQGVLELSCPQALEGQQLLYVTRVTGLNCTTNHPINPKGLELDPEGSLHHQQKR
T1 sequence (P08648 895-1049 partner limits assumed): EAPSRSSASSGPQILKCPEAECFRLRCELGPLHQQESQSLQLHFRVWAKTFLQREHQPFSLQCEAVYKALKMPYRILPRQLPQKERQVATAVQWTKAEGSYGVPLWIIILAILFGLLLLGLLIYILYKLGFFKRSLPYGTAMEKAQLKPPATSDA
T1 sequence (P05556 21-798): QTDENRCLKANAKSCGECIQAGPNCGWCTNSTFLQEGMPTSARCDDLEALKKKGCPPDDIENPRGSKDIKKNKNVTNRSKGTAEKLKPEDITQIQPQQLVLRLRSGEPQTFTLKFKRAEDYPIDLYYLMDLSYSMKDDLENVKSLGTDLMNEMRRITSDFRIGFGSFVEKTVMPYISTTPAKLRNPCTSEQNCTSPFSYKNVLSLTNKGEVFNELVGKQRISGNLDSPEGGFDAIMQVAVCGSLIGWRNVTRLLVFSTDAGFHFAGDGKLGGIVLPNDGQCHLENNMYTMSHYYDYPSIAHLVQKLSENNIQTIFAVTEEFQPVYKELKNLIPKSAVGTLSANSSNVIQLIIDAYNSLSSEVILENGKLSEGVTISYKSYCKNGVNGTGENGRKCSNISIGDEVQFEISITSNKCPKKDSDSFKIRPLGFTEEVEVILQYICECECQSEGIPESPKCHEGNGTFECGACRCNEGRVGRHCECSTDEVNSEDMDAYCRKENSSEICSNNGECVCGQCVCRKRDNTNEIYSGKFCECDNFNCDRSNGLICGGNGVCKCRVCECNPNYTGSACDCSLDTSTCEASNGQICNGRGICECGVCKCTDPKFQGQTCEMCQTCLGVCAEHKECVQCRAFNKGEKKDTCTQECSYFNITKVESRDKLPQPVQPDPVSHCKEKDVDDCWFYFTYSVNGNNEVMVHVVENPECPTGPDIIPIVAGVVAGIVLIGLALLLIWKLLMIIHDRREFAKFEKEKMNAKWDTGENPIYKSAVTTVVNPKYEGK
T2 sequence (P26006 33-872 limits assumed): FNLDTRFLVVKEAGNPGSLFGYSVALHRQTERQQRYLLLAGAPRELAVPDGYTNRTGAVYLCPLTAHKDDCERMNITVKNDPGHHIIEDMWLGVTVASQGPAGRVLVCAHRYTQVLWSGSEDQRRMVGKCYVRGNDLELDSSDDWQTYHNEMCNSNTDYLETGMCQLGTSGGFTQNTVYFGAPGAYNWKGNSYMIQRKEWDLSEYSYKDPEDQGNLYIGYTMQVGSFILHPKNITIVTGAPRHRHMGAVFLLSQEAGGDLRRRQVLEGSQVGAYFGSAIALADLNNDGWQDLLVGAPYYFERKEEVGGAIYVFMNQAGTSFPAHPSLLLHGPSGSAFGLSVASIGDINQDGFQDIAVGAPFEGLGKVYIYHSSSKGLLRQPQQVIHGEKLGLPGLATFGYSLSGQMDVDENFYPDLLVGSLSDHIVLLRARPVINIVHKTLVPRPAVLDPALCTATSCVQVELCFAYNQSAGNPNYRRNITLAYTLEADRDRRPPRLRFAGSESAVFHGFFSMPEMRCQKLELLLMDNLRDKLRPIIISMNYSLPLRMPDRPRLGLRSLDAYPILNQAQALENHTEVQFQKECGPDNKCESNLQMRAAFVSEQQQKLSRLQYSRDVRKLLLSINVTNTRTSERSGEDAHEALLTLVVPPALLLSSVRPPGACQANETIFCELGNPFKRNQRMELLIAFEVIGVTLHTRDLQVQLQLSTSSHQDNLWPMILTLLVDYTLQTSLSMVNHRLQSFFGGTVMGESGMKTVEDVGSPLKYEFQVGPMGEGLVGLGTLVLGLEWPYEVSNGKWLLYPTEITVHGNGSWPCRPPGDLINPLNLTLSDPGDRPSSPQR
T2 sequence (P26006 873-1051 partner limits assumed): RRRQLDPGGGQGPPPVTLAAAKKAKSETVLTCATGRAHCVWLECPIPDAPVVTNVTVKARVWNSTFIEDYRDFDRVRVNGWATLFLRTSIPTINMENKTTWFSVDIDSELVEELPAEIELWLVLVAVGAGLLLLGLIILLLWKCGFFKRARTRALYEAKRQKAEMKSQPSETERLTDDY
T2 sequence (P05556 21-798): as the sequence (P05556 21-798) above

As to “RYRGDLGRR [α5β1 integrin-specific ligand peptide]”, the “affinity for αvβ3 integrin receptor” value in experiment [1] is given as “displays affinity”. Moreover, the “binding to surface-immobilized human α5β1 integrin receptor” value in experiment [2] is on record as “binds most effectively”. The “affinity for α3β1 integrin receptor” value in experiment [3] is reported as “displays affinity”.
